Three molecules from paper PMC11020753, “Contribution of amino acids in the active site of dipeptidyl peptidase 4 to the catalytic action of the enzyme” (PLOS ONE, 2024) can be followed below.

What all share (assay type): biochemical
In experiment [1] the target is T1, DP4 variant N710Q (Homo sapiens, UniProt P27487, N710Q).
T1 construct: His(6)-37-766 hDP4 containing fractions were concentrated to 1 ml; made in house; host or cells: Pichia pastoris X-33 (vector pPICZα C, secreted)
The experiment can be described thus: IC50 determination with substrate Gly-Pro-AMC. Conditions: bounds given in mM, 100 mM HEPES-buffer (pH 7.6), T = 30 °C, substrate Gly-Pro-AMC in the range of Km. The procedure: (§1) The reactions were performed in 100 mM HEPES buffer, pH 7.6 at 30°C in a total assay volume of 270 μl by using 96-well plates. […] Fluorescence was detected with a […]luor Plus (TECAN) at an excitation wavelength of 380 nm and an emission wavelength of 465 nm.

In experiment [2] the target is T2, DP4 variant N710A (Homo sapiens, UniProt P27487, N710A).
T2 construct: His(6)-37-766 hDP4 containing fractions were concentrated to 1 ml; made in house; host or cells: Pichia pastoris X-33 (vector pPICZα C, secreted)
The experiment can be described thus: IC50 determination with substrate Gly-Pro-AMC. Conditions: bounds given in mM, 100 mM HEPES-buffer (pH 7.6), T = 30 °C, substrate Gly-Pro-AMC in the range of Km. On the procedure: as §1

Experiment [3] has as its target T3, DP4 variant E205A (Homo sapiens, UniProt P27487, E205A).
T3 construct: His(6)-37-766 hDP4 containing fractions were concentrated to 1 ml as described above; His6 (N); made in house; host or cells: Pichia pastoris X-33, vector pPICZα C (secreted)
The experiment can be described thus: IC50 determination with substrate Gly-Pro-AMC. Conditions: 100 mM HEPES-buffer (pH 7.6), T = 30 °C, substrate Gly-Pro-AMC in the range of Km. On the procedure: as §1

For experiment [4], the target named is T4, DP4 variant N710D (Homo sapiens, UniProt P27487, N710D).
T4 construct: His(6)-37-766 hDP4 containing fractions were concentrated to 1 ml; made in house; host or cells: Pichia pastoris X-33 (vector pPICZα C, secreted)
The experiment is described as follows: IC50 determination with substrate Gly-Pro-AMC. Conditions: 100 mM HEPES-buffer (pH 7.6), T = 30 °C, substrate Gly-Pro-AMC in the range of Km. The procedure:
as §1

Experiment [5] has as its target T5, wild type DP4 (Homo sapiens, UniProt P27487).
T5 construct: His(6)-37-766 hDP4 containing fractions were concentrated to 1 ml; made in house; host or cells: Pichia pastoris X-33 (vector pPICZα C, secreted)
The experiment can be described thus: IC50 determination with substrate Gly-Pro-AMC. Conditions: 100 mM HEPES-buffer (pH 7.6), T = 30 °C, substrate Gly-Pro-AMC in the range of Km. On the procedure:
as §1

The target of experiment [6] is T6, DP4 variant E206A (Homo sapiens, UniProt P27487, E206A).
T6 construct: His(6)-37-766 hDP4 containing fractions were concentrated to 1 ml as described above; His6 (N); made in house; host or cells: Pichia pastoris X-33, vector pPICZα C (secreted)
The experiment is described as follows: IC50 determination with substrate Gly-Pro-AMC. Conditions: bounds given in mM, 100 mM HEPES-buffer (pH 7.6), T = 30 °C, substrate Gly-Pro-AMC in the range of Km. The procedure:
as §1

In experiment [7] the target is T7, DP4 variant R125A (Homo sapiens, UniProt P27487, R125A).
T7 construct: His(6)-37-766 hDP4 containing fractions were concentrated to 1 ml; made in house; host or cells: Pichia pastoris X-33 (vector pPICZα C, secreted)
The experiment is described as follows: IC50 determination with substrate Gly-Pro-AMC. Conditions: 100 mM HEPES-buffer (pH 7.6), T = 30 °C, substrate Gly-Pro-AMC in the range of Km. On the procedure:
as §1

Experiment [8] concerns the target T8, DP4 variant R125K (Homo sapiens, UniProt P27487, R125K).
T8 construct: His(6)-37-766 hDP4 containing fractions were concentrated to 1 ml; made in house; host or cells: Pichia pastoris X-33 (vector pPICZα C, secreted)
The experiment is described as follows: IC50 determination with substrate Gly-Pro-AMC. Conditions: 100 mM HEPES-buffer (pH 7.6), T = 30 °C, substrate Gly-Pro-AMC in the range of Km. On the procedure:
as §1

Experiment [9] addresses T5, wild type DP4. The experiment is described as follows: Cleavage of peptide hormones by MALDI-TOF mass spectrometry. Details: key: +++: hydrolysis is comparable with the data obtained from the wild type enzyme; -: hydrolysis below 0,01% of the wild type enzyme. Conditions: T = 37 °C, 100 mM Tris-HCl, pH 7.6, substrate concentration 25 μM. On the procedure:
(§2) Enzyme concentration 5 x 10^−9 M, substrate concentration 25 μM, reaction time 1–3 hours, depending on the respective hydrolysis rate. Reactions were stopped by addition of 1 volume DHAP/DAHC-matrix, dissolved in 50% (v/v) acetonitrile, after certain time points. The matrix-sample mixture was placed in a vacuum, which caused the proteins to crystallize together with the matrix. Using the mass spectrometer "LD-TOF System G2025" from Hewlett Packard, the relative amount of substrate and respective product peaks in the samples could be determined. Relative hydrolysis rates were depicted by plotting relative substrate concentration against time.

Experiment [10] addresses T5, wild type DP4. The experiment is described as follows: Km and kcat determination by LC/MS-MS assay. Conditions: hydrolysis of peptide hormone, 10 mM Tris-buffer (pH 7.6), T = 30 °C. On the procedure:
(§3) Therefore, DP4 was incubated with different substrate concentrations in 10 mM Tris-buffer pH 7.6 at 30°C. Enzyme concentrations and incubation times were chosen to obtain a linear product formation. After selected time points, samples were taken and the reaction stopped by addition of 19 volumes 0,1% HCOOH. Cleavage products were quantified in the respective samples by LC/MS-MS assay.

Experiment [11] deals with T7, DP4 variant R125A. The experiment is described as follows: Km and kcat determination by LC/MS-MS assay. Conditions: hydrolysis of peptide hormone, 10 mM Tris-buffer (pH 7.6), T = 30 °C. On the procedure:
as §3

The target in experiment [12] is T8, DP4 variant R125K. The experiment is described as follows: Km and kcat determination by LC/MS-MS assay. Conditions: hydrolysis of peptide hormone, 10 mM Tris-buffer (pH 7.6), T = 30 °C. The procedure: as §3
For experiment [13], the target named is T1, DP4 variant N710Q. The experiment is described as follows: Cleavage of peptide hormones by MALDI-TOF mass spectrometry. Conditions: T = 37 °C, 100 mM Tris-HCl, pH 7.6, substrate concentration 25 μM. On the procedure: as §2
Experiment [14] deals with T2, DP4 variant N710A. Described as above. Conditions: T = 37 °C, 100 mM Tris-HCl, pH 7.6, substrate concentration 25 μM. On the procedure:
as §2

Experiment [15] has as its target T3, DP4 variant E205A. The experiment is described as above. Conditions: T = 37 °C, 100 mM Tris-HCl, pH 7.6, substrate concentration 25 μM. The procedure:
as §2

Experiment [16] has as its target T4, DP4 variant N710D. The description is as above. Conditions: T = 37 °C, 100 mM Tris-HCl, pH 7.6, substrate concentration 25 μM. The procedure:
as §2

Experiment [17] deals with T6, DP4 variant E206A. The experiment is described as above. Conditions: T = 37 °C, 100 mM Tris-HCl, pH 7.6, substrate concentration 25 μM. On the procedure: as §2
Experiment [18] has as its target T8, DP4 variant R125K. Described as above. Details: key: +++: hydrolysis is comparable with the data obtained from the wild type enzyme; -: hydrolysis below 0,01% of the wild type enzyme. Conditions: T = 37 °C, 100 mM Tris-HCl, pH 7.6, substrate concentration 25 μM. On the procedure: as §2
Experiment [19] concerns the target T7, DP4 variant R125A. The description is as above. Conditions: T = 37 °C, 100 mM Tris-HCl, pH 7.6, substrate concentration 25 μM. The procedure: as §2

pIC50: −log10 of the molar value. Non-standard residues stand in square brackets, D forms with d. Residues, ends and D or L forms follow the SMILES beside them. Tle = CC(C)(C)[C@H](N)C(=O)O A value given as a limit tells only on which side of the number the result lay.

T6 sequence (P27487 37-766 E206A): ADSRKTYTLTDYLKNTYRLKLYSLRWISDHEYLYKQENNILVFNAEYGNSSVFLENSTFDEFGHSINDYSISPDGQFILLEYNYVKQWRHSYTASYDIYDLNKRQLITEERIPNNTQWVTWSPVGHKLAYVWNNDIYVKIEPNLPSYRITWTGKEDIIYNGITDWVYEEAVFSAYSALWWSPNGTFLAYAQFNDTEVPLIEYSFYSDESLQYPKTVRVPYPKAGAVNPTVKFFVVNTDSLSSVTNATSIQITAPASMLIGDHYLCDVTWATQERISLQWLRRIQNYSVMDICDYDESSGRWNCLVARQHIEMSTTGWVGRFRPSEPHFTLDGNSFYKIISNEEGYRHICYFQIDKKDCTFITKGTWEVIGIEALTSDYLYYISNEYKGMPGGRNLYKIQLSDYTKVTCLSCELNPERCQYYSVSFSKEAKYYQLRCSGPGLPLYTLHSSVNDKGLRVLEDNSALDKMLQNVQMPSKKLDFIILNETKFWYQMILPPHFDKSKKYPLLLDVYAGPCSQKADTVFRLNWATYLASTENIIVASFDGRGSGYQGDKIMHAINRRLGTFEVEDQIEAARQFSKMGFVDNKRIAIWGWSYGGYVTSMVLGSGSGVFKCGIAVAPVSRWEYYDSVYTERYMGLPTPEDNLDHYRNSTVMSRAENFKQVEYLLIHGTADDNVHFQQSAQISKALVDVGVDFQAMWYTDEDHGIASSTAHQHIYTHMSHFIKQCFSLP
T7 sequence (P27487 37-766 R125A): as the sequence (P27487 37-766 E206A) above, with R89A, A170E counted along it
T1 sequence (P27487 37-766 N710Q): as the sequence (P27487 37-766 E206A) above, with A170E, N674Q counted along it
T5 sequence (P27487 37-766): as the sequence (P27487 37-766 E206A) above, with A170E counted along it
T4 sequence (P27487 37-766 N710D): as the sequence (P27487 37-766 E206A) above, with A170E, N674D counted along it
T3 sequence (P27487 37-766 E205A): as the sequence (P27487 37-766 E206A) above, with E169A, A170E counted along it
T2 sequence (P27487 37-766 N710A): as the sequence (P27487 37-766 E206A) above, with A170E, N674A counted along it
T8 sequence (P27487 37-766 R125K): as the sequence (P27487 37-766 E206A) above, with R89K, A170E counted along it

By IC50 is commonly meant the concentration that inhibits the measured activity by half. One may read the pIC50 as the IC50 on a negative log10 scale, so that one unit is a factor of ten. On to `CC[C@H](C)[C@H](NC(=O)[C@@H]1CCCN1C(=O)[C@@H](N)C(C)(C)C)C(=O)O` [t-Bu-Gly-Pro-Ile, t-Butyl-Gly-Pro-Ile] (H-[Tle]-Pro-Ile-OH), for which the half-maximal inhibitory concentration (IC50) against DP4 variant N710Q [1], at DP4 variant N710A [2] and against DP4 variant E206A [6] was over 10 mM throughout. Also, the pIC50 was 2.77 against DP4 variant E205A [3]; 3.22 at DP4 variant N710D [4]; 5.44 against wild type DP4 [5]; 3.40 at DP4 variant R125A [7]; 3.70 at DP4 variant R125K [8].

The term kcat denotes the number of substrate molecules converted per active site and unit of time at saturation. Consider “glucose-dependent insulinotropic peptide [GIP]”, for which the “Hydrolysis of peptide hormone in comparison to the DP4 wild type enzyme” value (“Hydrolysis of peptide hormone” for short) with wild type DP4 [9] was “+++”; with DP4 variant N710Q [13], “- (hydrolysis below 0,01% of the wild type enzyme)”; with DP4 variant N710A [14], “- (hydrolysis below 0,01% of the wild type enzyme)”; with DP4 variant E205A [15] it was “- (hydrolysis below 0,01% of the wild type enzyme)”; in the experiment with DP4 variant N710D [16], “- (hydrolysis below 0,01% of the wild type enzyme)”; with DP4 variant E206A [17], “- (hydrolysis below 0,01% of the wild type enzyme)”. Also, the kcat in the experiment with wild type DP4 [10] worked out at 3.9 ± 0.2 s⁻¹; with DP4 variant R125A [11] it was 0.16 ± 0.08 s⁻¹; in the experiment with DP4 variant R125K [12] it was 0.88 ± 0.08 s⁻¹.

On to “PACAP38: physiological DP4 substrate, peptide hormone, serine in P1 position (H2N-H-S-Q…)”, for which the “Hydrolysis of peptide hormone” value is listed as “+++” with wild type DP4 [9]; “- (hydrolysis below 0,01% of the wild type enzyme)” in the experiment with DP4 variant R125K [18]; “- (hydrolysis below 0,01% of the wild type enzyme)” in the experiment with DP4 variant N710Q [13]; “- (hydrolysis below 0,01% of the wild type enzyme)” with DP4 variant N710A [14]; “- (hydrolysis below 0,01% of the wild type enzyme)” with DP4 variant E205A [15]; “- (hydrolysis below 0,01% of the wild type enzyme)” with DP4 variant N710D [16]. Also, the “Hydrolysis of peptide hormone” value in the experiment with DP4 variant E206A [17] and in the experiment with DP4 variant R125A [19] was “- (hydrolysis below 0,01% of the wild type enzyme)” in each case.
